Common to all, as to details: protein: recombinant; tags: His6-SUMO removed by Ulp1
Data set [1] deals with hYBX2 CSD 85-177 (crystal) (human, UniProt Q9Y2T7 85-177, I92T;Q93K). Kind of data set: crystal structure; ITC: 25 C, iTC200, buffer not stated (protein stock 10 mM Tris-HCl pH 8.0, 100 mM NaCl, 1 mM DTT); EMSA: 50 mM Tris-HCl pH 7.5, 100 mM NaCl, 0.4 mM EDTA, 0.1% NP-40, 1 mM DTT, 50% glycerol, BSA, on ice, 0.2% glutaraldehyde; pull-down: 100 mM NaCl, 10 mM Tris-HCl pH 7.6, 2 mM EDTA, 0.5% NP-40, 4 C.
Chain of hYBX2 CSD 85-177 (crystal) (Q9Y2T7 85-177 I92T/Q93K): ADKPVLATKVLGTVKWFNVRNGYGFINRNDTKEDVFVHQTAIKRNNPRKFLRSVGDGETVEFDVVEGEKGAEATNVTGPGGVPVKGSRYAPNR

In another data set the target is hYBX2 CSD W100F (ITC) (human, UniProt Q9Y2T7 85-177, I92T;Q93K;W100F). Kind of data set: ITC; ITC: 25 C, iTC200, buffer not stated (protein stock 10 mM Tris-HCl pH 8.0, 100 mM NaCl, 1 mM DTT); EMSA: 50 mM Tris-HCl pH 7.5, 100 mM NaCl, 0.4 mM EDTA, 0.1% NP-40, 1 mM DTT, 50% glycerol, BSA, on ice, 0.2% glutaraldehyde; pull-down: 100 mM NaCl, 10 mM Tris-HCl pH 7.6, 2 mM EDTA, 0.5% NP-40, 4 C. A general note: ITC needs no label: the signal is the heat of the interaction.
Chain of hYBX2 CSD W100F (ITC) (Q9Y2T7 85-177 I92T/Q93K/W100F): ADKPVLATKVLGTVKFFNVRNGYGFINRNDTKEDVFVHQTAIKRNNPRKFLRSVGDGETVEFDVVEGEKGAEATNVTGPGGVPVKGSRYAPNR

In data set [2] the target is hYBX2 CSD I92T/Q93K (called wild-type in ITC) (human, UniProt Q9Y2T7 85-177, I92T;Q93K). The data set is described as above.
Chain of hYBX2 CSD I92T/Q93K (called wild-type in ITC) (Q9Y2T7 85-177 I92T/Q93K): as the sequence (Q9Y2T7 85-177 I92T/Q93K) above
Data set [3] addresses hYBX2 CSD W100F/Y173F (ITC) (human, UniProt Q9Y2T7 85-177, I92T;Q93K;W100F;Y173F). Described as above.
The target in data set [4] is hYBX2 CSD 85-165 (crystal) (human, UniProt Q9Y2T7 85-165, I92T;Q93K). Kind of data set: crystal structure; ITC: 25 C, iTC200, buffer not stated (protein stock 10 mM Tris-HCl pH 8.0, 100 mM NaCl, 1 mM DTT); EMSA: 50 mM Tris-HCl pH 7.5, 100 mM NaCl, 0.4 mM EDTA, 0.1% NP-40, 1 mM DTT, 50% glycerol, BSA, on ice, 0.2% glutaraldehyde; pull-down: 100 mM NaCl, 10 mM Tris-HCl pH 7.6, 2 mM EDTA, 0.5% NP-40, 4 C. A general note: In EMSA bound probe runs differently from free probe, usually more slowly.
Chain of hYBX2 CSD 85-165 (crystal) (Q9Y2T7 85-165 I92T/Q93K): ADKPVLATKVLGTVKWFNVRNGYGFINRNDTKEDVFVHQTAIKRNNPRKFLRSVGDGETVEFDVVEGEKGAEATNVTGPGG

Binding result and Kd data for five molecules are collected here from paper PMC11197489, “RNA 5-methylcytosine regulates YBX2-dependent liquid-liquid phase separation”.

Chain of hYBX2 CSD W100F/Y173F (ITC) (Q9Y2T7 85-177 I92T/Q93K/W100F/Y173F): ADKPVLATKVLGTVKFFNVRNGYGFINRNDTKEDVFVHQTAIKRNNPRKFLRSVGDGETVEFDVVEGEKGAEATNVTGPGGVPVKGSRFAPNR

As to GUCUC (ssRNA, m5C at positions 3 and 5) [GU(m5C)U(m5C)], the binding result in data set [1] is “binds”.

As for UCAUCUU (ssRNA, m5C at position 5) [UCAU(m5C)UU], in data set [1], the binding result is “binds”.

As a reminder, the Kd is the concentration at which binding is half-saturated. As for UCAUCUCU (ssRNA) [ITC unme-C RNA], the Kd in the data set with hYBX2 CSD W100F (ITC) was found to be 2590 ± 120 nM; in data set [2], 710 ± 60 nM; in data set [3], 7.26 ± 0.24 µM.

For the molecule UCAUCUCU (ssRNA, m5C at position 5) [ITC m5C RNA UCAU(m5C)UCU], the Kd in the data set with hYBX2 CSD W100F (ITC) came to 2340 ± 90 nM; in data set [2], 220 ± 20 nM; in data set [3] it was 6.33 ± 0.52 µM.

In the case of UCAUCU (ssRNA, m5C at position 5) [UCAU(m5C)U], the binding result in data set [1] and in data set [4] was “binds” in each case.
